This test deals with T1, Mycobacterium tuberculosis GlgE (Mycobacterium tuberculosis), P9WQ17.
T1 chain: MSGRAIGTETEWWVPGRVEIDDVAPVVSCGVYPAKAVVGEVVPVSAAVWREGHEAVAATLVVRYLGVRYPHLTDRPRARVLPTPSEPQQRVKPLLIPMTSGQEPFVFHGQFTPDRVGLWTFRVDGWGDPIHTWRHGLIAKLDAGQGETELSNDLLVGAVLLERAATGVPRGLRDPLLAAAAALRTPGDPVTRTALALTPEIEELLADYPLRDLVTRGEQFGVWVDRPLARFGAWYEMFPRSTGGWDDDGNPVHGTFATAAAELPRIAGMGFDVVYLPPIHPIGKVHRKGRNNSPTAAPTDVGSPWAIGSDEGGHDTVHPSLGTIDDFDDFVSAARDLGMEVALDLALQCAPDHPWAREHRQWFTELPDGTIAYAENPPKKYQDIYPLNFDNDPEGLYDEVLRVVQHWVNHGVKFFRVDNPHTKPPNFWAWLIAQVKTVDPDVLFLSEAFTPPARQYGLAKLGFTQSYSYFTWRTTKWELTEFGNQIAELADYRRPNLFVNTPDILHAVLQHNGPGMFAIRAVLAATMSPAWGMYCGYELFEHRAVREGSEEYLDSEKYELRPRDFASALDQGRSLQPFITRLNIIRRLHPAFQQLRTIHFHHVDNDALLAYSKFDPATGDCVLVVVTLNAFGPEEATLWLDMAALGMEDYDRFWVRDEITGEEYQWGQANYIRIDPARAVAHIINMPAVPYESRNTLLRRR
The test is described as follows: crystal structure; Mtb GlgE co-crystallised with 10 mM maltose (hanging drop, 0.1 M HEPES pH 7.5, 1.0 M ammonium formate), 3.3 Å; the same crystals soaked with 10 mM maltohexaose, 4.0 Å; homodimer seen in the crystal. To be noted: remark: other sources report otherwise.

B1: Mycobacterium tuberculosis GlgE, P9WQ17 1-701 (enzyme)
chain: MSGRAIGTETEWWVPGRVEIDDVAPVVSCGVYPAKAVVGEVVPVSAAVWREGHEAVAATLVVRYLGVRYPHLTDRPRARVLPTPSEPQQRVKPLLIPMTSGQEPFVFHGQFTPDRVGLWTFRVDGWGDPIHTWRHGLIAKLDAGQGETELSNDLLVGAVLLERAATGVPRGLRDPLLAAAAALRTPGDPVTRTALALTPEIEELLADYPLRDLVTRGEQFGVWVDRPLARFGAWYEMFPRSTGGWDDDGNPVHGTFATAAAELPRIAGMGFDVVYLPPIHPIGKVHRKGRNNSPTAAPTDVGSPWAIGSDEGGHDTVHPSLGTIDDFDDFVSAARDLGMEVALDLALQCAPDHPWAREHRQWFTELPDGTIAYAENPPKKYQDIYPLNFDNDPEGLYDEVLRVVQHWVNHGVKFFRVDNPHTKPPNFWAWLIAQVKTVDPDVLFLSEAFTPPARQYGLAKLGFTQSYSYFTWRTTKWELTEFGNQIAELADYRRPNLFVNTPDILHAVLQHNGPGMFAIRAVLAATMSPAWGMYCGYELFEHRAVREGSEEYLDSEKYELRPRDFASALDQGRSLQPFITRLNIIRRLHPAFQQLRTIHFHHVDNDALLAYSKFDPATGDCVLVVVTLNAFGPEEATLWLDMAALGMEDYDRFWVRDEITGEEYQWGQANYIRIDPARAVAHIINMPAVPYESRNTLLRRR
The molecule B1 returned a stoichiometry N of 2.

These data come from paper PMC4526890, “Crystal structures of Mycobacterium tuberculosis GlgE and complexes with non-covalent inhibitors” (Scientific Reports, 2015).
